Patent US20220047716A1 (SUTRO BIOPHARMA, published 2022)
Residue numbers refer to the chain shown, from its start.

B1: SRP1848-G04 (antibody, V domains shown)
VH: EVQLVESGGGLVQPGGSLRLSCAASGFNIHSTDIHWVRQAPGKGLEWVAYITPAGGATFYADSVKGRFTISADTSKNTAYLQMNSLRAEDTAVYYCARYPYWFAGYMDYWGQGTLVTVSS
VL: not shown
B2: SRP1848-G11 (antibody, V domains shown)
VH: B1 VH with H30S, F59W, A104S
VL: not shown
B3: SRP1848-G10 (antibody, V domains shown)
VH: B1 VH with G16S, H30R, F59Y, M107I
VL: not shown
B4: SRP1848-G09 (antibody, V domains shown)
VH: B1 VH with H30R, S31G, Y99H, P100E, A104S
VL: not shown
B5: SRP1848-G07 (antibody, V domains shown)
VH: B1 VH with F59W, Y101F
VL: not shown
B6: SRP1848-G06 (antibody, V domains shown)
VH: B1 VH with H30R, F59Y, S63N, Y99Q
VL: not shown
B7: SRP1848-E02 (antibody, V domains shown)
VH: EVQLVESGGGLVQPGGSLRLSCAASGFNIGKYSIHWVRQAPGKGLEWVGEIYPNDGNTDYADSVKGRFTISADTSKNTAYLQMNSLRAEDTAVYYCARGSWSWRSGYGYYLDYWGQGTLVTVSS
VL: not shown
B8: SRP1848-G03 (antibody, V domains shown)
VH: EVQLVESGGGLVQPGGSLRLSCAASGFNISTYYIHWVRQAPGKGLEWVGGITPSDGFTDYADSVKGRSTISADTSKNTAYLQMNSLRAEDTAVYYCARGSWSWPSGHGYFLDYWGQGTLVTVSS
VL: not shown
B9: SRP1848-F06 (antibody, V domains shown)
VH: B7 VH with G30S, K31L, Y32S, S33Y, E50G, Y52S, N54I, S100F, S102A
VL: not shown
B10: SRP1848-G01 (antibody, V domains shown)
VH: B7 VH with G30S, K31R, Y32H, E50W, Y52A, N57S, S102A, G108S, Y110F
VL: not shown
B11: SRP1848-F01 (antibody, V domains shown)
VH: B7 VH with G30R, K31T, E50S, Y52F, N57T, S102A, S105A, G108S
VL: not shown
B12: SRP1848-F05 (antibody, V domains shown)
VH: B7 VH with G30S, Y32S, N57S, S102A, G108S, Y110F
VL: not shown
B13: SRP1848-F10 (antibody, V domains shown)
VH: B7 VH with G30S, K31N, Y32N, E50S, Y52F, N57Y, S102F
VL: not shown
B14: SRP1848-F09 (antibody, V domains shown)
VH: B7 VH with G30S, K31N, Y32H, S33Y, E50G, Y52S, N54L, N57Y, S100A, L111I
VL: not shown
B15: SRP1848-E07 (antibody, V domains shown)
VH: B7 VH with G30R, Y32S, Y52F, N54Y, N57S, S63N, S100A, L111I
VL: not shown
B16: SRP1848-F07 (antibody, V domains shown)
VH: B7 VH with G30S, K31N, Y32H, N57I, R87S, S102D, G108S
VL: not shown
B17: SRP1848-F11 (antibody, V domains shown)
VH: EVQLVESGGGLVQPGGSLRLSCAASGFNISNNYIHWVRQAPGKGLEWVGGITPIDGNTDYADSVKGRFTISADTSMNTAYLQMNSLRAEDTAVYYCARGSWYWRAGYGYYLDYWGQGALVTVSS
VL: not shown
B18: SRP1848-E05 (antibody, V domains shown)
VH: B7 VH with L20V, K31V, S33Y, E50G, Y52T, N57Y, S100F, S102A
VL: not shown
B19: SRP1848-H01 (antibody, V domains shown)
VH: EVQLVESGGGLVQPGGSLRLSCAASGFNIRTQSIHWVRQAPGKGLEWIGDIFPIDGITDYADSVKGRFTISADTSKNTAYLQMNSLRAEDTAVYYCARGSWSWPSGMDYYLDYWGQGTLVTVSS
VL: not shown
B20: SRP1848-F02 (antibody, V domains shown)
VH: B7 VH with G30R, K31T, E50S, Y52F, N57T, F68L, R104Q, S105A
VL: not shown
B21: SRP1848-F08 (antibody, V domains shown)
VH: EVQLVESGGGLVQPGGSLRLSCAAGGFNISNHSIHWVRQAPGKGVEWVGEIYPVDGITDYADSVKGRFTISADTSKNTAYLRMNSLRAEDTAVYYCARGSWYWQSGYSYYLDYWGQGTLVTVSS
VL: not shown
B22: SRP1848-D03 (antibody, V domains shown)
VH: B19 VH with L11V, T31Y, Q32F, I48V, I54N, I57S, D90E, S100H, M107Y, D108W
VL: not shown
B23: SRP1848-E03 (antibody, V domains shown)
VH: B8 VH with V12A, S30G, T31N, S54R, S68F, M83V, S105A, G108S, F110Y
VL: not shown
B24: SRP1848-A02 (antibody, V domains shown)
VH: EVQLVESGGGLVQPGGSLRLSCAASGFNISGFRIHWVRQAPGKGLEWVAGIYPESGATYYADSVKGRFTISADTSKNTAYLQMNSLRAEDTAVYYCARHLYVWDWVLDHVLDYWGQGTLVTVSS
VL: not shown
B25: SRP2060-E10 (antibody, V domains shown)
VH: EVQLLESGGGLVQPGGSLRLSCAFSGFSLSTFGMGVGWVRQAPGKGLEWVSHIWWDDDKYYHPALKGRFTISKDNSKNTVYLQMNSLRAEDTAVYYCGRNHFPHYYGSSHWYFNVWGQGTTVTVSS
VL: EIVMTQSPATLSLSPGERATLSCKASQDINSYLSWYQQKPGQAPRLLIYRANRLVDGIPARFSGSGSGTDYTLTISSLEPEDFAVYYCLQYDEFPYTFGGGTKVEIK
B26: SRP2060-B01 (antibody, V domains shown)
VH: B25 VH with F24L, P43T, Y81H
VL: DIQMTQSPSTLSASVGDRVTITCKASQDINSYLSWYQQKPGKAPKLLIYRANRLVDGVPSRFSGSGSGTEFTLTISSLQPDDFATYYCLQYDEFPYTFGGGTKVEIK
B27: SRP2060-E05 (antibody, V domains shown)
VH: B25 VH with I71V
VL: B25 VL
B28: SRP1848-E06 (antibody, V domains shown)
VH: EVQLVESGGGLVQPSGSLRLSCAASGFNINRYYIHWVRQAPGKGLEWVGGITPNDGYTDYADSVEGRFTTSADTSKNTAYLQMNSLRAEDTAVYYCARGTWSWPSGHSYYLDYWGQGTLVTVSS
VL: not shown

What was measured:
[1] = target: human folate receptor alpha (hFOLR1) (human, UniProt P15328 25-234); test: cell-based or functional assay
human folate receptor alpha (hFOLR1), sequence (P15328 25-234 limits assumed): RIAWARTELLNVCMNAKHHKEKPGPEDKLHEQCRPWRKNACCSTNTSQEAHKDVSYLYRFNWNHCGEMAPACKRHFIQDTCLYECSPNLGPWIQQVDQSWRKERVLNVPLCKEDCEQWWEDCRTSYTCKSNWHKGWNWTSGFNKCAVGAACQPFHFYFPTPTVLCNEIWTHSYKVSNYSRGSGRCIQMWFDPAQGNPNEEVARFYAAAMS

[2] = target: human folate receptor alpha (hFOLR1) on cells (human, UniProt P15328 25-234); test: cell-based or functional assay
human folate receptor alpha (hFOLR1) on cells, sequence (P15328 25-234 limits assumed): as above

Binder | Igrov 2° antibody cell killing EC50 [1] [nM] | Igrov 2° antibody cell killing Span [1] [%] | KB 2° antibody cell killing EC50 [1] [nM] | KB 2° antibody cell killing Span [1] [%] | Igrov 2° Antibody Cell Killing, Nb-SC239, EC50 [2] [nM] | Igrov 2° Antibody Cell Killing, Nb-SC239, span [2] [%]
B1 | 0.016 | 75 | 0.051 | 92 |  | 
B2 | 0.023 | 84 | 0.04 | 97 |  | 
B3 | 0.019 | 79 | 0.046 | 97 |  | 
B4 | 0.036 | 83 | 0.073 | 97 |  | 
B5 | 0.038 | 78 | 0.058 | 94 |  | 
B6 | 0.026 | 81 | 0.057 | 96 |  | 
B7 | 0.025 | 71 | 0.046 | 93 |  | 
B8 | 0.021 | 76 | 0.064 | 91 |  | 
B9 | 0.032 | 77 | 0.066 | 94 |  | 
B10 | 0.022 | 66 | 0.07 | 91 |  | 
B11 | 0.018 | 69 | 0.047 | 91 |  | 
B12 | 0.015 | 74 | 0.061 | 94 |  | 
B13 | 0.009 | 68 | 0.038 | 94 |  | 
B14 | 0.05 | 79 | 0.056 | 93 |  | 
B15 | 0.013 | 73 | 0.059 | 94 |  | 
B16 | 0.018 | 71 | 0.057 | 92 |  | 
B17 | 0.017 | 70 | 0.054 | 91 |  | 
B18 | 0.027 | 78 | 0.071 | 95 |  | 
B19 | 0.016 | 67 | 0.049 | 96 |  | 
B20 | 0.009 | 54 | 0.054 | 92 |  | 
B21 | 0.024 | 77 | 0.061 | 94 |  | 
B22 | 0.038 | 76 |  | 98 |  | 
B23 | 0.027 | 73 | 0.057 | 94 |  | 
B24 | 0.039 | 71 | 0.028 | 94 |  | 
B25 |  |  |  |  | 0.061 | 68
B26 |  |  |  |  | 0.045 | 76
B27 |  |  |  |  | 0.22 | 71
B28 | 0.025 | 74 |  | 93 |  | 
